Experimental data as given in patent US8293494.
Substitutions are numbered along the chain they refer to. Names may count otherwise.

B1: recombinant JMJD2C (aa 12-349) (protein)
chain: PSCKIMTFRPSMEEFREFNKYLAYMESKGAHRAGLAKVIPPKEWKPRQCYDDIDNLLIPAPIQQMVTGQSGLFTQYNIQKKAMTVKEFRQLANSGKYCTPRYLDYEDLERKYWKNLTFVAPIYGADINGSIYDEGVDEWNIARLNTVLDVVEEECGISIEGVNTPYLYFGMWKTTFAWHTEDMDLYSINYLHFGEPKSWYAIPPEHGKRLERLAQGFFPSSSQGCDAFLRHKMTLISPSVLKKYGIPFDKITQEAGEFMITFPYGYHAGFNHGFNCAESTNFATVRWIDYGKVAKLCTCRKDMVKISMDIFVRKFQPDRYQLWKQGKDIYTIDHTKPT
B2: mutant JMJD2C H190A (aa 12-349) (protein)
chain: B1 chain with H179A

What was measured:
[1] = target: histone H3 monomethylated at lysine 9 (core histones or nucleosomes from HeLa cells), P68431
[2] = target: histone H3 dimethylated at lysine 9 (core histones or nucleosomes from HeLa cells), P68431
[3] = target: histone H3 trimethylated at lysine 9 (core histones or nucleosomes from HeLa cells), P68431

Protein | in vitro demethylation assay, Western blot with α-monomethyl H3K9 [1] | in vitro demethylation assay, Western blot with α-dimethyl H3K9 [2] | in vitro demethylation assay, Western blot with α-trimethyl H3K9 [3]
B1 | the methylation status of mono- and dimethyl H3K9 is not altered | the methylation status of mono- and dimethyl H3K9 is not altered | Recombinant JMJD2C very efficiently demethylates trimethyl H3K9 on both core histones and nucleosomes in vitro
B2 |  |  | the enzymatically impaired mutant JMJD2C H190A fails to demethylate
